Measured values published in patent US7981423B2, “Rage fusion proteins” (Transtech Pharma, Inc., priority 2004, dated 2011).

Key:
Zucker diabetic rats = experiment: Diabetic rat model of restenosis (balloon injury of left common carotid artery); format: in vivo
Method: In these experiments, balloon injury of left common carotid artery was performed in Zucker diabetic and nondiabetic rats using standard procedure. […] A maintenance dose was delivered every other day until day 7 after injury (i.e., at day 1, 3, 5 and 7 after injury). The maintenance dose was high=1 mg/animal for one group, or low=0.3 mg/animal for the second group. To measure vascular smooth muscle cell (VSMC) proliferation, animals were sacrificed at 4 days and 21 days after injury.
For the measurement of cell proliferation, 4 day animals received intraperitoneal injection of bromodeoxyuridine (BrDdU) 50 mg/kg at 18, 12, and 2 hours before euthanasia. After sacrifice, the entire left and right carotid arteries were harvested. Specimens were stored in Histochoice for at least 24 hours before embedding. Assessment of VSMC proliferation was performed using mouse anti-BrdU monoclonal antibody. A fluorescence labeled goat anti-mouse secondary antibody was applied. The number of BrdU-positive nuclei per section were counted by two observers blinded to the treatment regimens.
The remaining rats were sacrificed at 21 days for morphometric analysis. Morphometric analyses were performed by an observer blinded to the study groups, using computerized digital microscopic planimetry software Image-Pro Plus on serial sections, ([…]) carotid arteries stained by Van Gieson staining. All data were expressed as mean±SD. Statistical analysis was performed with use of SPSS software. Continuous variables were compared using unpaired t tests. A values of P≦0.05 was considered to be statistically significant.

[1] = Pharmacokinetic profile of TTP-4000 after IV injection; format: in vivo, monkeys; details: single IV bolus 5 mg/kg; plasma; after saturation of ligands; FIG. 11
Method: Following collection, the tubes were placed on wet ice (maximum 30 minutes) until centrifugation under refrigeration (at 2 to 8° C.) at 1500×g for 15 minutes. Each harvested plasma sample was then stored frozen (−70° C.±10° C.) until assayed for RAGE polypeptide using an ELISA at various time-points following the injection, as described in Example 6.
Initially, 50 uL of the RAGE specific monoclonal antibody 1HB1011 at a concentration of 10 ug/mL in 1×PBS pH 7.3 is coated on plates via overnight incubation. When ready for use, plates are washed three times with 300 uL of 1× Imidazole-Tween wash buffer and blocked with 1% BSA. […] The samples are allowed to incubate at room temperature for one hour. After incubation, the plates are plates are washed three times. A Goat Anti-human IgG1 1 (Sigma A33 12) AP conjugate in 1×PBS with 1% BSA is added and allowed to incubate at room temperature for 1 hour. The plates are washed three times. Color was elucidated with paranitrophenylphosphate.

Fc receptor = Fc receptor activation, TNF-α secretion from THP-1 cells; format: cell-based; details: FIG. 12
Source text: Fc stimulation results in TNF-α secretion.

[2] = biological target: immobilized known RAGE ligands (HMG1B, CML, A beta); experiment: Saturation binding of TTP-4000 to immobilized known RAGE ligands; details: fusion protein 0 to 360 nM; Graphpad Prizm; FIG. 15; figures not given
Method: The ligands are immobilized on a microtiter plate and incubated in the presence of increasing concentrations of fusion protein from 0 to 360 nM. The fusion protein-ligand interaction is detected using a polyclonal antibody conjugated with alkaline phosphatase that is specific for the IgG portion of the fusion chimera. […] HMG1B=Ampoterin, CML=Carboxymethyl Lysine, A beta=Amyloid beta 1-40.

[3] = High dose 1.0 mg/animal qod × 4, loading dose 3 mg/animal, IP, 21 days, mean±SD
[4] = Low dose 0.3 mg/animal qod × 4, loading dose 3 mg/animal, IP, 21 days, mean±SD

B1: TTP-4000: four domain RAGE fusion protein (SEQ ID NO: 32): human RAGE amino acids 1-251 linked to CH2 and CH3 domains of human IgG (protein)
chain: MAAGTAVGAWALVLSLWGAVVGAQNITARIGEPLVLKCKGAPKKPPQRLEWKLNTGRTEAWKVLSPQGGGPWDSVARVLPNGSLFLPAVGIQDEGIFRCQAMNRNGKETKSNYRVRVYQIPGKPEIVDSASELTAGVPNKVGTCVSEGSYPAGTLSWHLDGKPLVPNEKGVSVKEQTRRHPETGLFTLQSELMVTPARGGDPRPTFSCSFSPGLPRHRALRTAPIQPRVWEPVPLEEVQLVVEPEGGAVAPPSVFLFPPKPKDTLMISRTPEVTCVVVDVSHEDPEVKFNWYVDGVEVHNAKTKPREEQYNSTYRVVSVLTVLHQDWLNGKEYKCKVSNKALPAPIEKTISKAKGQPREPQVYTLPPSRDELTKNQVSLTCLVKGFYPSDIAVEWESNGQPENNYKTTPPVLDSDGSFFLYSKLTVDKSRWQQGNVFSCSVMHEALHNHYTQKSLSLSPGK
For B1, the “vascular smooth muscle cell proliferation (BrdU proliferating cells, in words)” value (Zucker diabetic rats; 4 days after injury, dose-responsive, FIG. 13B) was “significantly reduced”, the Luminal area (Zucker diabetic rats; [3]) was 0.16 ± 0.02 mm^2 and the Medial area (Zucker diabetic rats; [3]) was 0.11 ± 0.01 mm^2. For the same molecule, the I/M ratio (Zucker diabetic rats; [4]) was 1.61 ± 0.26, the Luminal area (Zucker diabetic rats; [4]) was 0.18 ± 0.04 mm^2 and the Medial area (Zucker diabetic rats; [4]) was 0.11 ± 0.02 mm^2. The “intima/media ratio (in words)” value (Zucker diabetic rats; dose-responsive, FIG. 13A) was “significantly reduced”, the terminal half-life [1] was “greater than 300 hours” and the “stimulation of TNF-α release from cells (in words)” value (Fc receptor; conditions where human IgG stimulation of TNF-α release is detected) was “does not stimulate TNF-α release”. For the same molecule, the TNF generated (Fc receptor; well precoated with 10 μg/well heat aggregated protein, THP-1 cells, 24 hours) was “less than 2 ng/well” and the “Relative Kds” value [2] was “match with established literature values”.
